Test results reported in article PMC4085576.

Molecular target: microtubules (X-rhodamine labeled, biotin-linked to the surface)
Assay: TIRF microscopy of GFP-tagged protein on immobilised microtubules

B1: KIF7_(560)-GFP, N-terminal motor domain and first coiled-coil of KIF7 with a C-terminal GFP tag (domain or fragment)
chain: MGLEAQRLPGAEEAPVRVALRVRPLLPKELLHGHQSCLRVEPERGRITLGRDRHFGFHVVLGEDTGQEAVYQACVQPLLEAFFEGFNATVFAYGQTGSGKTYTMGEASVASLHEDEQGIIPRAMAEAFKLIDENDLLDCLVHVSYLELYKEEFRDLLEVGTASRDIQLREDDRGNVVLCGVKEVDVEGLDEVLSLLEMGNAARHTGATHFNRLSSRSHTVFTVTLEQRGRTPSRLPRPAAGHLLVSKFHFVDLAGSERVLKTGSTGERLKESIQINSTLLALGNVISALGDPQRRGSHIPYRDSKITRILKDSLGGNAKTVMIACVSPSSSDFDETLNTLNYASRAQNIRNRATVNWHPEAERVPEEQAAGARGPPRHRSETRIIHRGRRVPCPAVGSAAVAAGLGAECARCRARTSAAYSLLRELQAEPGLPGAAARKVRDWLCAVEGERSTLSSASGPDSGIESAPAEDQAAQGTSGRKGDEGTQQLLTLQSQVARLEEENRDFLAALEDAMEQYKLQSDRLREQQEEMVELRLRLELAQPGWGAPGLLQGLPPGSFV
Which fold increase in filament-bound KIF7 with 2 mM AMP-PNP against 1 mM MgATP does the source give for B1 here?
The fold increase in filament-bound KIF7 with 2 mM AMP-PNP against 1 mM MgATP was 2 fold.
